Data: article PMC5740117, “Functional characterization and discovery of modulators of SbMATE, the agronomically important aluminium tolerance transporter from Sorghum bicolor” (Scientific Reports, 2017)

T1: SbMATE (Sorghum bicolor, UniProt A7XZS5)
T1 sequence (A7XZS5 1-600): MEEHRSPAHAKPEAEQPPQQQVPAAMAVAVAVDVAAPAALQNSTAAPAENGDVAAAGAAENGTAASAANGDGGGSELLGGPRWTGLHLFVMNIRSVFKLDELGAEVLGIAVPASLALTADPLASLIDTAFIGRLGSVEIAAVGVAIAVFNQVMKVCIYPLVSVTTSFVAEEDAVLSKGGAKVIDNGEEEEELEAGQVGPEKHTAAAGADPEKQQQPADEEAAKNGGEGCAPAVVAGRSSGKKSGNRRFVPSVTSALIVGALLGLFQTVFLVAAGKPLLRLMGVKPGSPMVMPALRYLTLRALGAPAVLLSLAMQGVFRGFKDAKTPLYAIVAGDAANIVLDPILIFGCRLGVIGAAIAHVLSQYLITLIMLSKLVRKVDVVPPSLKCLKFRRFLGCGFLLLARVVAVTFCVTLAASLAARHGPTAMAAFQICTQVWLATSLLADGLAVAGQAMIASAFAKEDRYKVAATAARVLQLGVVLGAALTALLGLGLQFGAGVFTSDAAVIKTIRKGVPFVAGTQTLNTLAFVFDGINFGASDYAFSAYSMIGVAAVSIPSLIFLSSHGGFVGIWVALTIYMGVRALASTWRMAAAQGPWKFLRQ

T2: SbMATE (Sorghum bicolor MATE transporter), detergent-purified (Sorghum bicolor, bDDM detergent-solubilised from Pichia pastoris; N-terminal FLAG and C-terminal His10 tags left out; covalently immobilised by EDC-NHS chemistry for SPR)
T2 chain: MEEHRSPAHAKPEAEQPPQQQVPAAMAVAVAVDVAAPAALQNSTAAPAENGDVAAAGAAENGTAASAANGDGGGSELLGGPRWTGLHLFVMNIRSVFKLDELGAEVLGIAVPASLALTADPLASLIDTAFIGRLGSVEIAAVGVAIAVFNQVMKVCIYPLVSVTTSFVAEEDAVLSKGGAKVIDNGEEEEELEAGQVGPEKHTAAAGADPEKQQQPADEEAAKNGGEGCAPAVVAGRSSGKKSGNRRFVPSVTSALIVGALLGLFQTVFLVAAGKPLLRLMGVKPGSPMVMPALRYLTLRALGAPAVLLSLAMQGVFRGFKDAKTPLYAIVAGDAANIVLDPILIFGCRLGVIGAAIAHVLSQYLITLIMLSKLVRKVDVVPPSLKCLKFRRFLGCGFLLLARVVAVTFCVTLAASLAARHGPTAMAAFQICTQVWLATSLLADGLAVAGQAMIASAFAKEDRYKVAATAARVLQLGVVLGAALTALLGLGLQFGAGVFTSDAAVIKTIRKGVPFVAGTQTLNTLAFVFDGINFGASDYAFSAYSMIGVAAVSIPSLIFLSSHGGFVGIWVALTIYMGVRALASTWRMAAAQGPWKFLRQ


How the values were obtained:
SbMATE [1] = target: T1, SbMATE; test: surface plasmon resonance, immobilized detergent-purified protein; format: binding; set-up: full-length; N-terminal FLAG and C-terminal His10 (or 3C-cleavable C-terminal His8) in Pichia pastoris KM71H, bDDM-purified for SPR; Xenopus oocytes from cRNA for citrate efflux; details: 50 mM HEPES pH 8.0, 150 mM NaCl, 0.03% bDDM
SbMATE [2] = target: T1, SbMATE; test: ethidium uptake into Pichia pastoris cells, flow cytometry of DNA-bound ethidium; format: cell-based; set-up: full-length; N-terminal FLAG and C-terminal His10 (or 3C-cleavable C-terminal His8) in Pichia pastoris KM71H; details: pH 8.5, 25 mM Tris-Cl, 137 mM NaCl, 2.7 mM KCl, outward proton gradient, 20 min, room temperature; read-out: half-maximal transport rate
[3] = target: T2, SbMATE (Sorghum bicolor MATE …); test: SPR; as the other SPR (SbMATE covalently immobilised on CMD chip; 50 mM HEPES pH 8.0, 150 mM NaCl, 0.03% bDDM; Nbs injected at various concentrations) but a BSA-immobilised surface was the reference channel instead of a blank surface; n = 3; details: both partners purified
[4] = target: T2, SbMATE (Sorghum bicolor MATE …); test: SPR; BiOptix 404Pi, CMD sensorchip; detergent-purified SbMATE covalently immobilised (EDC-NHS, 5,000 RU); purified Nbs injected at various concentrations; running buffer 50 mM HEPES pH 8.0, 150 mM NaCl, 0.03% bDDM; double-referenced against a blank surface and buffer injections; regeneration 50 mM glycine pH 2.1; details: both partners purified

| Molecule | Kd [4] [µM] | also measured |
| --- | --- | --- |
| ethidium bromide | – | Kd (SbMATE [1]): 47.1 ± 15.6 µM; Km (SbMATE [2]): 130 ± 17.8 µM |
| Nb 86 (VHH, Selected by mRNA/cDNA display from a naive camelid single-domain library (Creative Biolabs); also called nanobody 86; source: E. coli Shuffle T7, purified (Ni-NTA, SEC)) VHH: HVQLVESGGGSVQAGGSLRLTCAASGFTFSNYYMSWVRQAPGKGLEWVSSIYSVGSNGYYADSVKGRSTISRDNAKNTLYLQMNSLKPEDTAVYYCAAEPGGSWWDAYSYWGQGTQVTVSS | – | Kd [3]: 0.174 µM |
| Nb 83 (VHH, Selected by mRNA/cDNA display from a naive camelid single-domain library (Creative Biolabs); also called nanobody 83; source: E. coli BL21 (DE3) Star, purified (Ni-NTA, SEC)) VHH: EVQLVESGGGSVQAGGSLRLSCAVSGYTYCSYDMSWYRQAPGKEREFVSGIDSDGSTSYADSVKGRFTISQDNAKNTLYLQMNSLKPEDTAMYYCAVDSVWRLCSLDPADFGYWGQGTQVTVSS | 3.3 | – |
| Nb 94 (VHH, Selected by mRNA/cDNA display from a naive camelid single-domain library (Creative Biolabs); also called nanobody 94; source: E. coli BL21 (DE3) Star, purified (Ni-NTA, SEC)) VHH: EVQLVESGGGLVQPGGSLRLSCAASGFTFSTYSMSWVRLAPGKALEWVSVINSGGDATYYADSVKGRFTISRDNAKNMLYLQMNSLKPVDTAMYYCVTGLYMSTGPVVAVPFGYWGQGTQVTVSS | – | Kd [3]: 0.0995 µM |
| Nb 80 (VHH, Selected by mRNA/cDNA display from a naive camelid single-domain library (Creative Biolabs); also called nanobody 80; source: E. coli, purified (Ni-NTA, SEC)) VHH: QVQLVESGGGSVQAGGSLRLSCTYSVYTYSSDSMAWFRQAPGKEREGVAGIYIGSGSTLYADSAKGRLTISQDKAKNTVYLQMNSLKPEDTALYYCAAGGNWYDGVLNVERAFAYWGQGTQVTVSS | 12.2 | – |
| Nb 93 (VHH, Selected by mRNA/cDNA display from a naive camelid single-domain library (Creative Biolabs); also called nanobody 93; source: E. coli, purified (Ni-NTA, SEC)) VHH: HVQLVESGGGLVQAGGFLRLSCTASGFTFDNLALAWFRQAPGKEREGVSCISWSGTRTYYADSVQGRFAISRDNAKNTLYLQMASLKPEDTAMYYCAAESSWVKTCPGDTTDWGSTYWGQGTQVTVSS | 26.1 | – |
| Nb 81 (VHH, Selected by mRNA/cDNA display from a naive camelid single-domain library (Creative Biolabs); also called nanobody 81; source: E. coli, purified (Ni-NTA, SEC)) VHH: HVQLVESGGGSVQAGGSLRLSCAASGYSYCSYDMSWYRQAPGKEREFVATIDSYGDTSYADSVKGRFTISQDNAKNTLYLQMNSLKPEDTAMYYCATTPYGGWRYFGYWGQGTQVTVSS | 23.9 | – |
